Laboratory results taken from PMC6277545, “Structural Basis for the Limited Response to Oxidative and Thiol-Conjugating Agents by Triosephosphate Isomerase From the Photosynthetic Bacteria Synechocystis” (Frontiers in Molecular Biosciences, 2018).

B1: Arabidopsis thaliana cytosolic triosephosphate isomerase (enzyme, UniProt P48491 1-254, looked up)
chain: MARKFFVGGNWKCNGTAEEVKKIVNTLNEAQVPSQDVVEVVVSPPYVFLPLVKSTLRSDFFVAAQNCWVKKGGAFTGEVSAEMLVNLDIPWVILGHSERRAILNESSEFVGDKVAYALAQGLKVIACVGETLEEREAGSTMDVVAAQTKAIADRVTNWSNVVIAYEPVWAIGTGKVASPAQAQEVHDELRKWLAKNVSADVAATTRIIYGGSVNGGNCKELGGQADVDGFLVGGASLKPEFIDIIKAAEVKKSA
notes: cytosolic triosephosphate isomerase of Arabidopsis thaliana; also called AtcTPI; cytosolic TPI isoform of A. thaliana
B2: Synechocystis sp. PCC 6803 triosephosphate isomerase (enzyme)
chain: GPHMRKIIIAGNWKMHKTQAEAQAFLQGFKPLIEDAAESREVVLCVPFTDLSGMSQQLHGGRVRLGAQNVHWEASGAYTGEISAAMLTEIGIHYVVIGHSERRQYFGETDETANLRVLAAQKAGLIPILCVGESKAQRDAGETEQVIVDQVKKGLVNVDQSNLVIAYEPIWAIGTGDTCAATEANRVIGLIREQLTNSQVTIQYGGSVNANNVDEIMAQPEIDGALVGGASLEPQSFARIVNFQP
notes: triosephosphate isomerase of Synechocystis sp; PCC 6803, GenBank BAK50928.1; Crystallised with the substrate analog 2-phosphoglycolate (2-PG); also called SyTPI; Synechocystis TPI; source: E. coli BL21 (DE3) Δtpi, purified (HisTrap, PreScission Protease, Superdex 75 gel filtration); not shown: His tag (from the HisTrap column and the modified pET19 vector), N-terminal, cleaved

Target: the molecule itself
Assay: SEC; Superdex 75 10/300 column, compared with MW standards (conalbumin, ovalbumin, carbonic anhydrase, Ribonuclease A); apparent molecular mass of SyTPI 54 kDa

| Protein | stoichiometry N |
| --- | --- |
| B1 | 2 |
| B2 | 2 |
